Laboratory results reported in patent US20220411483A1 (Chugai, published 2022).
Positions count from the first letter of the chain named.

T1: FcγRIIa R type extracellular domain with C-terminal His tag (human, UniProt P12318 34-217)
T1 construct: extracellular domain; also called FcgRIIaR; not shown: His tag at the C terminus
T1 sequence (looked up): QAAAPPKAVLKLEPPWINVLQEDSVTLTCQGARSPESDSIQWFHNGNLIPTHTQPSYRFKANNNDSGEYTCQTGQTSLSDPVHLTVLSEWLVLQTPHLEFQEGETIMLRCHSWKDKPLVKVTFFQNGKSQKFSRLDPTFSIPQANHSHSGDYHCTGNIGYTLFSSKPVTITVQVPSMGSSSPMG

T2: FcγRIIb extracellular domain with C-terminal His tag (human, UniProt P31994 43-217)
T2 construct: extracellular domain; also called FcgRIIb; not shown: His tag at the C terminus
T2 sequence (looked up): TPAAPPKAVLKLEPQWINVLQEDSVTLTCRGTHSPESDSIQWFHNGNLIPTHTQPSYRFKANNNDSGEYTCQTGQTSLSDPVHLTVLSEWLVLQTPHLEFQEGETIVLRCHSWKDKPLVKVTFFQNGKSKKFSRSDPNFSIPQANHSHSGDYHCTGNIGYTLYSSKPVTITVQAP

T3: FcγRIIa R type extracellular domain, His tag (human, UniProt P12318 34-217)
T3 construct: extracellular domain; also called FcgRIIaR
T3 sequence (looked up): T1 sequence (looked up)

T4: FcγRIIb extracellular domain, His tag (human, UniProt P31994 43-217)
T4 construct: extracellular domain; also called FcgRIIb
T4 sequence (looked up): T2 sequence (looked up)

B1: IL6R-F652/IL6R-L (antibody, human IgG1, kappa)
heavy: QVQLQESGPGLVKPSETLSLTCAVSGHSISHDHAWSWVRQPPGEGLEWIGFISYSGITNYNPSLQGRVTISRDNSKNTLYLQMNSLRAEDTAVYYCARSLARTTAMDYWGEGTLVTVSSASTKGPSVFPLAPSSKSTSGGTAALGCLVKDYFPEPVTVSWNSGALTSGVHTFPAVLQSSGLYSLSSVVTVPSSSLGTQTYICNVNHKPSNTKVDKKVEPKSCDKTHTCPPCPAPELLGGDSVFLFPPKPKDTLYISRTPEVTCVVVDVSHEDPEVKFNWYVDGVEVHNAKTKPREEQYNSTYRVVSVLTVLHQDWLNGKEYKCKVSNKALPAPIEKTISKAKGQPREPQVYTLPPSRDELTKNQVSLTCLVKGFYPSDIAVEWESNGQPENNYKTTPPVLDSDGSFFLYSKLTVDKSRWQQGNVFSCSVMHEALHYHYTQKSLSLSP
light: not shown
notes: human IgG1
B2: IL6R-PD026/IL6R-L (antibody, human IgG1, kappa)
heavy: B1 heavy with L236A
light: not shown
notes: human IgG1
B3: IL6R-PD031/IL6R-L (antibody, human IgG1, kappa)
heavy: B1 heavy with L236H
light: not shown
notes: human IgG1
B4: IL6R-PD033/IL6R-L (antibody, human IgG1, kappa)
heavy: B1 heavy with L236K
light: not shown
notes: human IgG1
B5: IL6R-PD035/IL6R-L (antibody, human IgG1, kappa)
heavy: B1 heavy with L236N
light: not shown
notes: human IgG1
B6: IL6R-2B044/IL6R-L (antibody, human IgG1, kappa)
heavy: B1 heavy with F243L, Y254M, Y436N, K441E
light: not shown
B7: IL6R-2B045/IL6R-L (antibody, human IgG1, kappa)
heavy: B1 heavy with F243M, Y254M, Y436N, K441E
light: not shown
B8: IL6R-2B118/IL6R-L (antibody, human IgG1, kappa)
heavy: B1 heavy with Y254M, Q297M, Y436N, K441E
light: not shown
B9: IL6R-2B124/IL6R-L (antibody, human IgG1, kappa)
heavy: B1 heavy with Y254M, Q297V, Y436N, K441E
light: not shown
B10: IL6R-2B128/IL6R-L (antibody, human IgG1, kappa)
heavy: B1 heavy with Y254M, Y298D, Y436N, K441E
light: not shown
B11: IL6R-2B129/IL6R-L (antibody, human IgG1, kappa)
heavy: B1 heavy with Y254M, Y298E, Y436N, K441E
light: not shown
B12: IL6R-2B132/IL6R-L (antibody, human IgG1, kappa)
heavy: B1 heavy with Y254M, Y298H, Y436N, K441E
light: not shown
B13: IL6R-2B137/IL6R-L (antibody, human IgG1, kappa)
heavy: B1 heavy with Y254M, Y298N, Y436N, K441E
light: not shown
B14: IL6R-2B145/IL6R-L (antibody, human IgG1, kappa)
heavy: B1 heavy with Y254M, S300A, Y436N, K441E
light: not shown
B15: IL6R-2B154/IL6R-L (antibody, human IgG1, kappa)
heavy: B1 heavy with Y254M, S300M, Y436N, K441E
light: not shown
B16: IL6R-2B169/IL6R-L (antibody, human IgG1, kappa)
heavy: B1 heavy with Y254M, V325I, Y436N, K441E
light: not shown

What follows are binders tested against T1, FcγRIIa R type extracellular domain … (assay: SPR; amount bound divided by amount of IL6R-F652/IL6R-L bound, x100).

Row | Relative FcgRIIaR-binding Activity | Binder
1 | 100 | B1
2 | 67.2 | B2
3 | 41.8 | B3
4 | 11.2 | B4
5 | 44.4 | B5

These binders were tested against T2, FcγRIIb extracellular domain with … in the same assay as above.

Row | Relative FcgRIIb-binding Activity | Binder
6 | 100 | B1
7 | 37.2 | B2
8 | 27.6 | B3
9 | 6.2 | B4
10 | 38.3 | B5

These binders were tested against T3, FcγRIIa R type extracellular domain, … (assay: SPR, bound amount per captured antibody).

Row | Relative FcgRIIaR-binding Activity | Binder
11 | 55.7 % of IL6R-BF648/IL6R-L | B6
12 | 64.7 % of IL6R-BF648/IL6R-L | B7
13 | 93.4 % of IL6R-BF648/IL6R-L | B8
14 | 65.2 % of IL6R-BF648/IL6R-L | B9
15 | 88.1 % of IL6R-BF648/IL6R-L | B10
16 | 68.4 % of IL6R-BF648/IL6R-L | B11
17 | 66.9 % of IL6R-BF648/IL6R-L | B12
18 | 77.7 % of IL6R-BF648/IL6R-L | B13
19 | 45.1 % of IL6R-BF648/IL6R-L | B14
20 | 77.5 % of IL6R-BF648/IL6R-L | B15
21 | 90.8 % of IL6R-BF648/IL6R-L | B16

Each binder was assayed against T4, FcγRIIb extracellular domain, His tag (assay: SPR, bound amount per captured antibody).

Row | Relative FcgRIIb-binding Activity | Binder
22 | 65.5 % of IL6R-BF648/IL6R-L | B6
23 | 81.1 % of IL6R-BF648/IL6R-L | B7
24 | 96.3 % of IL6R-BF648/IL6R-L | B8
25 | 72.9 % of IL6R-BF648/IL6R-L | B9
26 | 102 % of IL6R-BF648/IL6R-L | B10
27 | 93.3 % of IL6R-BF648/IL6R-L | B11
28 | 89.1 % of IL6R-BF648/IL6R-L | B12
29 | 98.3 % of IL6R-BF648/IL6R-L | B13
30 | 55.5 % of IL6R-BF648/IL6R-L | B14
31 | 79.4 % of IL6R-BF648/IL6R-L | B15
32 | 103 % of IL6R-BF648/IL6R-L | B16
